Results taken from the NTF2 design screens of Basanta et al. (2020).

Assay: protease stability score; higher = more stable; yeast display proteolysis, trypsin and chymotrypsin;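 also: relative to predicted unfolded state with 0 unfolded-like and 1 meaning tenfold more protease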

Row | Sequence | protease stability score
1 | DEEEKRWRHMTHLFWHIEKTGNEDRLSKLADPDVRLNINGVHAHGREEVISVLREFQERYKNLTIHIKDIKVFDGVVFIDGEDHFDGVTVKSLVIIFIVNGRIKEIEHRRE | 1.62
2 | DEEEKSLREMMRQFVEHLETGNFEEIEKMADPNARVRIDGRDFVGREEWHKMFIHLHKHLRLEDSHIHHIDFQGNKIHIHGHIHVVVDGKREHRHFHVIIRKVNGRWTIEEMYIE | 1.06
3 | DEEEKSLRFAIKMMEELIQTGDEDLFERLLDPDTRLRVGDKTFHGREQVLKWFEEWLKRMGADHVELRLHDMRVVGDKLDLDVEYRQYVGDKDIHDRRHLIIIKVNGRWYFKEVRIL | 1.67
4 | DEEEKTFEQIVRHLIDDLVTGDWEKLRDYFDPHVRVEIGDKRIVGRETLVDELSHWRVKHVRVELHDYRVINGRIEVHGSVDFRGNIDGRELRHSYETKIIFDKINGRWTLQSHHVL | 1.21
5 | DEEEKVEDDMLHRWLQYFLTGDEEHLLELADPRVRVRINGKDDHGMNAVERFWEEYRRKFKNVRIHIHDMRYYDGVIHVDGILQINGKTLKIEFIIVIVNGRIRFITENIR | 1.73
6 | DEEEKVIKDVVDMLRKALRTGDEERIRELADPDVRIEQGDKELHGRELWLEWLKEIRTERVILHVRRVRHFNGKIINEIEVRMDVRVGEFRHESTVSTILIMEKFNGRWHIRSMIIE | 1.5
7 | DEEEKVSRLAWELLFKTWKTGDEHEFHHMFDPDVRVDFNGRHLHGREAEEILFKQVDHIEDLHLRHIHMIDGKIQIEEDVVGHFNGQRTNVHVRFVAKKIDGRWRNKMVIVR | 1.2
8 | DEEEKVVFELLRLFITAWETGDEDVLLRLADPNVRMTIGDKHYHGMEHFSHVYLLIFEELRITVKVHDIRIIGDKAYVDVEERRHQGDKSWKYRTHYEFEKIDGRWKLRRVEVK | 2.54
9 | DEEEKWFRESEKLIEELIHTGNEEEFRKLADPNMRLDFNGVEVHGRHHFFREIRHTSEKFGVDKVEVRLKDFKVFNGVAHYHGEIIFNGRTIEHEIIAEKVNGRWRLQFLIFR | 1.61
10 | DEEEKWIRHILELVLRAEKTGDEDRLSELMDPDVKLDIDGRDLHGREKVKEWIEELKHKFKNLRIIDRDIRIYGEKHNVHGELHFNGQTHSAIIILRIVDGRIKEIFVIHV | 1.32
11 | DEEEKWMRNLTEWLLKSLTTGDFESFNRMFDPRTRMHVDGREFHGREEVERYLREFDDKLGADHRESDLEHIEVQGNKARFHTTLKFDIGDKHLRIDTHLVIVKINGQWRIRHVEVR | 0.839
12 | DEEEKYIKSLAKLISHAISTGDFELFHKLVDPDVRLIVDGVDLHGWELATKWIEEIRVEDHEVRVKEVRFVDGRANSDGEVILDGEYNGREKRVERKTILVSLKVDGRWTVKSLEIK | 0.882
13 | DEEEKYSKEANTMSRHLVETGDEEIMSKLLDPDVRNDVDGVEFHGRELLSRILKEWRVRFESMHIEDEELQGDKVIVHGRELVRMIYDGKTFNTERKVIFIVVKINGRWFIKEVKVL | 0.751
14 | DEEEKYVEDIAREFLHAMRTGDEEWNKELADPHVRMHLHQGDYILNLHGRDLFTRVIRYLVDQWRLEIRIENFDSIGNKIEVHGTIILKQGDKSIKRKSIIHIDVVNGRLKEVHIHLQ | 0.152
15 | DEEENMAEWAIRLMKHVIETGNFEEFLRLFDPNTRMHVNGVESHGRERSSKVLKEWLEIMGVDHLKVRDEKFSVQGNKLHIHLDTRTEQGDKEIETHIEVISYKIDGRWRQKEIRFEVR | 1.69
16 | DEEEQAASHLEELIFRVIETGDWRNFYKMMDPDVRLDFNGQEYHGRENVTEAWHNSFHDLGIKHIELRTKNSQGDFLHLNFIVRYNGREFNVHFNWHVIDGRMKLIDIRVEHI | 0.585
17 | DEEEQEFREFMKHVLEMIRTGDEDQWRKLMDPDARLIVDGKDIHGREEVVRLWSEITRHARFRDRKIHSMEIQGDKVRVDGRVLGEFNGVDRQTESHIIFHKINGRWKIHQEFIV | 0.882
18 | DEEEQHAERVTRRWSRAVLTGNEEELSRLMDPHVRVHINGRDLHGREVAVEQRREQHKELGIDHIEVRLRHLRIQGDKLEVDSRVIIRVNGQEITIDTLLIWRKIDGRWVLHSVHEH | 0.348
19 | DEEEQHLKKFLKYLKKAIETGDWHKITEMADPNTRLNINGVDNIGWEIISHILMHELEELGLEQIHVHFEHERIQGDKVKLEIHLHIGDKVEHAEMYILKFDGRWRIKRLVRG | 1.93
20 | DEEEQHSRELAEIYFEIWETGDFHTHKRMMDPNAKLDYNGQTIHGREHIVEYLRHLWERVKGVRFHLDSVHLQGDWLHIRGTLQVDGQHHKVDIHVQIVDGVLHEEHIRVR | 1.53
21 | DEEEQLFHEAHDKFIKIMETGDWKDFHRNFDPDAKIEVGDKDKHGREEATEMLKFILDLLGVDHVLVKRLRIYGNKIESDVVFNVNGVEQRFHLISVKINGKWRTHKIVLR | 1.23
22 | DEEEQLSKIALRHFVESLETGDEHLLHRLIDPHARDIVDGVEIHGRDRMVENLIHMIERFKNVRLEIKDIKVINGRVHVEGRLEVDGKKLTMNLHFQKFDGRWWVRSVERH | 1.52
23 | DEEEQQVEEVLRNMLRDFYTGDWKRLMKLADPHVQLDINGQLHHGREEAARFLIEWWEILGFKHSRLRHIDIQGEKLHIHGDKRVNGRTFELELIIIIINGRIRSEEIRVI | 0.691
24 | DEEEQRIEEMLKKWLEAMETGDEDLEKQLADPNVRFHIGDKEHVGREELSQVKKRLGIKVMILHDERVDRQGDWIVMHLDIILEFDGRRFRVRFNLFVEKIDGRWLVKKVEIHLR | 0.936
25 | DEEEQSERIALELLDKSINTGDERVWKEMFDPRVIMDINGVKLIGREDYRRWRERFDHEENRDFKIHHHEVQGNKVHLDVEIDLTLNFDGKRHRHIFRTEVDVIKFDGKWHIRSLIVK | 1.18

Row | Sequence | protease stability score
26 | DEEERAAEEFLRWISKNSRTGDEESFNHLADPNTRVIIGDKVLHGREEWKKFLEEIRIEEIELKDFRIFDGKIRLDVIHTGKVNGRRHEVQVQMIVIKVNGRWIMHSVKFD | 1.09
27 | DEEERAARFVLELIIRTFDTGDEHTIHELLDPHVRLWVGDKTFHGREQITHLIQRHLEELGFDHVHVHHRTIDVQGEKIELHGELELRQGDKRDTRTIKIIVQKVDGRWRITIFEIE | 1.48
28 | DEEERALIVLLLLFEESMRTGDPRLIKELMDPHMRLRFENRHYHGRDEFMEWFKQVDHIFIDRVNIRDVRLIGEWVRIDVEILGTHEQGDKQFEFRRRTHLVVRKVDGRWIMHHVEIR | 1.64
29 | DEEERAMEHMVRHLVDDIHTGDWRSLYRFLDPDVRLHVGDKRFHGRDTIVRLLLELLQTWGIDRIHSEVKHVHLQGEKIEAHTKDKYGDFEFSVLVDIFKIDGKWVIERREIS | 1.08
30 | DEEERDAEEVFRKFMRDVFTGNWDHIHEMFDPHARSSIQVDGRHIELHGRDELTRIFIWLGVDHIELKHVHIQGEKVISIGIVRYNGKHTHLEVYLRKVDGRWIIHSVHVRIR | 1.67
31 | DEEERDAIHAFRDFVKNFITGNEDRIDELADPHMRSDINGVSIHGWEEFSRHTLREMKRFDHIEFRIRDIKIQGNYIHIDTEVILRVNGRTFSTRMVLIWLKVNGKWFLHEIDVR | 1.35
32 | DEEERDAKEARDLLERSMDTGNEDLWKELLDPNMIIHIGDKEIHGMKEWIEFHKERGAETRVEFKDMRMQGNKLILRLNLKVHFDGQTYEHEVTYIVSKVDGVWLVKYIHIH | 0.981
33 | DEEERDARRVYEHLIENWETGNFDRVLELFDPHVKLIFNGQEFIGRDDVSKEINRIDHEHIDDFRLHSIRIVDGRIEIDGRIRFTLHVNGKTVHFDRKLILIMRKVDGRWIITSLHIR | 2.09
34 | DEEERDIKIAIEFWIETWLTGDEEKEEELLDPNVRLLINGKELHGRERVVKFLKRHYHRVDHSRIDIRRMHVVDGQVHVETELRVHFDGRELRFDIILHFRKFNGRWEITKIELR | 2
35 | DEEERDISRWLDHLIESLETGDEDSLQHLLDPHVRVVVNGKDHHGWKALTKMLRQLRVNRIRIRDFEIIGDKIEVDIRMHVRVGDKHYVFNVDLVARKIDGRWIMHNITIH | 2.19
36 | DEEERDLQQFIEEWWKTLVTGDEHLIERYLDPHVRMDWNGRELHGREAIADTIKKYVDEIRLEVRINHVRFQGDKVDIDGEIVERQGDKTRHLNFELEIIVVNGRAQEIRVRLR | 1.48
37 | DEEERDMKHSSERLLRTWVTGDEDLLRTLADPDARHHLEVDGVHLHLHGMEHFSKWTTDLIEKLGIKHFDMKDLDVQGDKIHVHSTFHYGDKTFEVRLIVVKIDGKWLLSHSSFIVR | 0.299
38 | DEEERDMKIAEEVFLHAMHTGDWKKFFELMDPHVKVHIDGVDLHGREEASKIWKERIDKVKNMTFDVKHSHRQGNKVTLHTELHVNGKTTHLIVVLSKVNGRWTLEEMSEE | 1.21
39 | DEEERDSKRALELMIHWVETGNEERLSRLIDPHARLEIGDKHHHGREEFEKWFRRIDYLQYYTVRHIELQGDKIEVKVELTFIIDGQEVHTETRVIAIKFDGRWRLTSMEIN | 1.54
40 | DEEERDSRIALEIWLHNVRTGDEKSERDNLDPHVRYIVDGRDYIGREDFLHMMSQIRIEEIRIKRFSSYNGRIHMDVHSRVTYNGVDRDIDENLHSTKYDGRWSIHYIEFR | 1.01
41 | DEEEREARDAVHRFDKDVVTGDEDRLRELMDPNVKLDIGDKEIIGREYMVSFWRELVKHIRIHSITIKRVEVYDGRIHVHQEVTLNIDGQHVTIKSHTIALKVNGKWTWTRFSMT | 1.06
42 | DEEERELKHFLKEFNRAWRTGDEDEIRHLLDPHVRILFNGVHVIGMEEIEKFWRHLRVRVTRITVHRVDLQGDKLRVDTEQDLVFLIGDFENKHTHHTVIFILKINGRWIIESIVIV | 1.45
43 | DEEERERKHIAEEFAHELETGDEERFVELADPNVRSDINGKQYHGRDRFRDWQEQWHEKVKNLRFEIERWRVIGDFVRIDVRIRIDGRRHNVEIIQVVVNGRITFLEIRVK | 0.799
44 | DEEERFAEEAVEIIIRDWMTGDEELLHRNADPHMRIEVGDKTIHGMENFVKFLLEIRMKDSRLRVEDVKHYNGKLHLTFKSEVDGRVNGRRKTLTFDIKMIIEKVDGRWILKTIHIV | 1.89
45 | DEEERFSEEALRRIWHALETGDERIQEDLADPNVRIDVGEKSYHGREKWSEMIRHMRLHDIKIHHVIVINGRMRFHGRMDGNIDGKRIDTEVEIHFEKVDGKWLVRKIRIH | 2.25
46 | DEEERHMKKLLDELLRAWVTGDESRLSELLDPNARSIVNGKSSHGREESEKIVRWAGVKHFNEDDTKLINGVVVVKGTMEVDGVTWEVDIRNFIFDGRVKEVRIIIR | 1.19
47 | DEEERHTHEWFKELLHNLQTGDEDRFRQMADPNVQILVDGVEYIGREHAAHWMIIHIRHLRIEHEHDEEIRVFDGRIDVRHIRVGSYGDKRTDTRVHIDVNIIDGRIKFLRIHYS | 0.869
48 | DEEERHTREMADWFITLFLTGNEEIMMELADPNMRLEHISEDEHYEYHGMHDVSRWLHELLLKFKNIRVRLRRIRIQGDYVIIHQDLNYNGKRVHVIIIVHIFDGRIKSLRFEFR | 1.67
49 | DEEERHVQTLYEIFLKLEITGNEHAIKRLLDPHTRLHINGREHHGREEVVEAVRFWLTEWRIHHFKIHNREVQGDKMYMDTRLEVEFNGVNEEVHMIIIMQKIDGRWILRRIEIE | 2.25
50 | DEEERHVRELLQRLINALDTGDWKTIHELFDPHARMEINGQHYHGRETINDKLKEMRVSVHDWEQKHIDTFEGHAVVHTHVHIVYIVNGVKHINDTREMIVFTKINGRWVIESRHVK | 0.563
